Measured values: US9993536B2, “Peptides and combination of peptides and scaffolds for use in immunotherapy against renal cell carcinoma (RCC) and other cancers” (immatics biotechnologies GmbH, priority 2015, dated 2018)

Biological target: HLA-A*02:01 (Homo sapiens, UniProt P04439, D140Y/D185E/D98H/E176V/E277Q/G131W/G231S/I119V/I121R/I166T/I218V/L300P/L318F/N151K/N90K/P208A/P217A/Q86G/Q94H/R138H/R169H/T345S)
Assay: MHC binding assay (UV-ligand exchange, beta2m ELISA)
Details: peptide exchange yield, HLA-A*02:01, UV-ligand exchange
Excerpt: Candidate peptides for T cell based therapies according to the present invention were further tested for their MHC binding capacity (affinity). The individual peptide-MHC complexes were produced by UV-ligand exchange, where a UV-sensitive peptide is cleaved upon UV-irradiation, and exchanged with the peptide of interest as analyzed. Only peptide candidates that can effectively bind and stabilize the peptide-receptive MHC molecules prevent dissociation of the MHC complexes. To determine the yield of the exchange reaction, an ELISA was performed based on the detection of the light chain (β2m) of stabilized MHC complexes. The assay was performed as generally described in Rodenko et al. (Rodenko et al., 2006).
96 well MAXISorp plates (NUNC) were coated over night with 2 ug/ml streptavidin in PBS at room temperature, washed 4× and blocked for 1 h at 37° C. in 2% BSA containing blocking buffer. Refolded HLA-A*02:01/MLA-001 monomers served as standards, covering the range of 15-500 ng/ml. Peptide-MHC monomers of the UV-exchange reaction were diluted 100 fold in blocking buffer. Samples were incubated for 1 h at 37° C., washed four times, incubated with 2 ug/ml HRP conjugated anti-β2m for 1 h at 37° C., washed again and detected with TMB solution that is stopped with […]. Absorption was measured at 450 nm. Candidate peptides that show a high exchange yield (preferably higher than 50%, most preferred higher than 75%) are generally preferred for a generation and production of antibodies or fragments thereof, and/or T cell receptors or fragments thereof, as they show sufficient avidity to the MHC molecules and prevent dissociation of the MHC complexes.

Row | Substance | Peptide exchange (MHC class I binding score)
1 | 41 (GLLKTLQKL; listed as Homo sapiens) [compound 41] | ++ (≥20% = ++)
2 | 42 (VILDTGTIQL; listed as Homo sapiens) [compound 42] | ++ (≥20% = ++)
3 | 43 (YLKDELDEL; listed as Homo sapiens) [compound 43] | +++ (≥50 = +++)
4 | 44 (ALFSFVTAL; listed as Homo sapiens) [compound 44] | +++ (≥50 = +++)
5 | 45 (ALLGIPLTL; listed as Homo sapiens) [compound 45] | +++ (≥50 = +++)
6 | 46 (GLSEVLVQI; listed as Homo sapiens) [compound 46] | +++ (≥50 = +++)
7 | 47 (TLAEVRAVQEI; listed as Homo sapiens) [compound 47] | +++ (≥50 = +++)
8 | 48 (VVASNIMEV; listed as Homo sapiens) [compound 48] | ++ (≥20% = ++)
9 | 49 (VLIVEVPGV; listed as Homo sapiens) [compound 49] | +++ (≥50 = +++)
10 | 50 (SLSDHIVLL; listed as Homo sapiens) [compound 50] | ++ (≥20% = ++)
11 | 51 (NLWPMILTL; listed as Homo sapiens) [compound 51] | +++ (≥50 = +++)
12 | 52 (SILDAVQRV; listed as Homo sapiens) [compound 52] | ++ (≥20% = ++)
13 | 53 (FLLEIRQTL; listed as Homo sapiens) [compound 53] | ++ (≥20% = ++)
14 | 54 (ALVAKGLVQA; listed as Homo sapiens) [compound 54] | ++ (≥20% = ++)
15 | 55 (YLALILPVL; listed as Homo sapiens) [compound 55] | ++ (≥20% = ++)
16 | 56 (ILMDFSNSM; listed as Homo sapiens) [compound 56] | +++ (≥50 = +++)
17 | 57 (SLQKEILYL; listed as Homo sapiens) [compound 57] | ++ (≥20% = ++)
18 | 58 (FLVDFEQSHL; listed as Homo sapiens) [compound 58] | ++++ (≥75% = ++++)
19 | 59 (SLKNNVVSV; listed as Homo sapiens) [compound 59] | +++ (≥50 = +++)
20 | 60 (ILWKDIEYV; listed as Homo sapiens) [compound 60] | +++ (≥50 = +++)
21 | 61 (SLMGILLRI; listed as Homo sapiens) [compound 61] | ++ (≥20% = ++)

Row | Substance | Peptide exchange (MHC class I binding score)
22 | 62 (VLAGPAFLVQL; listed as Homo sapiens) [compound 62] | +++ (≥50 = +++)
23 | 63 (GLIEDHFDVTV; listed as Homo sapiens) [compound 63] | ++ (≥20% = ++)
24 | 64 (LLAASVALA; listed as Homo sapiens) [compound 64] | ++ (≥20% = ++)
25 | 65 (IIYGGSVTGA; listed as Homo sapiens) [compound 65] | ++ (≥20% = ++)
26 | 66 (TLLKTIIKV; listed as Homo sapiens) [compound 66] | ++ (≥20% = ++)
27 | 67 (LLDVLAPLV; listed as Homo sapiens) [compound 67] | ++ (≥20% = ++)
28 | 68 (YVLTQPPSV; listed as Homo sapiens) [compound 68] | ++ (≥20% = ++)
29 | 69 (ILADLLPSL; listed as Homo sapiens) [compound 69] | ++ (≥20% = ++)
30 | 70 (SLTALRLLL; listed as Homo sapiens) [compound 70] | ++ (≥20% = ++)
31 | 71 (ALDGHLYAV; listed as Homo sapiens) [compound 71] | +++ (≥50 = +++)
32 | 72 (YSLEKVFGI; listed as Homo sapiens) [compound 72] | ++ (≥20% = ++)
33 | 73 (GLDGIPFTV; listed as Homo sapiens) [compound 73] | +++ (≥50 = +++)
34 | 74 (GLFHKQVTV; listed as Homo sapiens) [compound 74] | +++ (≥50 = +++)
35 | 75 (FLIKSINLV; listed as Homo sapiens) [compound 75] | +++ (≥50 = +++)
36 | 76 (VLADDHLIEV; listed as Homo sapiens) [compound 76] | ++ (≥20% = ++)
37 | 77 (SLIKHKIML; listed as Homo sapiens) [compound 77] | ++ (≥20% = ++)
38 | 78 (ALLDTVVQA; listed as Homo sapiens) [compound 78] | ++ (≥20% = ++)
39 | 79 (ALADIVWRA; listed as Homo sapiens) [compound 79] | +++ (≥50 = +++)
40 | 80 (KLASMLETL; listed as Homo sapiens) [compound 80] | +++ (≥50 = +++)
41 | 81 (SLLPALPKL; listed as Homo sapiens) [compound 81] | ++ (≥20% = ++)
42 | 82 (SLLQATDFMSL; listed as Homo sapiens) [compound 82] | +++ (≥50 = +++)

Row | Substance | Peptide exchange (MHC class I binding score)
43 | 83 (IQWSIVPEV; listed as Homo sapiens) [compound 83] | +++ (≥50 = +++)
44 | 84 (YLMDEGAHL; listed as Homo sapiens) [compound 84] | ++ (≥20% = ++)
45 | 85 (FVMSEIRTV; listed as Homo sapiens) [compound 85] | +++ (≥50 = +++)
46 | 86 (GLLQGKLALL; listed as Homo sapiens) [compound 86] | ++ (≥20% = ++)
47 | 88 (TLAELHISL; listed as Homo sapiens) [compound 88] | ++ (≥20% = ++)
48 | 89 (SLLLAVTEV; listed as Homo sapiens) [compound 89] | ++ (≥20% = ++)
49 | 90 (FTLEKNFVI; listed as Homo sapiens) [compound 90] | ++ (≥20% = ++)
50 | 91 (MLLSSLVSL; listed as Homo sapiens) [compound 91] | ++ (≥20% = ++)
51 | 92 (FLFRDILEL; listed as Homo sapiens) [compound 92] | +++ (≥50 = +++)
52 | 93 (GVMAGDIYSV; listed as Homo sapiens) [compound 93] | ++++ (≥75% = ++++)
53 | 94 (ILHHKVYDL; listed as Homo sapiens) [compound 94] | ++ (≥20% = ++)
54 | 96 (TLAETLVNL; listed as Homo sapiens) [compound 96] | +++ (≥50 = +++)
55 | 97 (TLISELVQA; listed as Homo sapiens) [compound 97] | ++ (≥20% = ++)
56 | 99 (GLAPHLEQI; listed as Homo sapiens) [compound 99] | ++ (≥20% = ++)
57 | 100 (KLNVAPLAV; listed as Homo sapiens) [compound 100] | ++ (≥20% = ++)
58 | 101 (HIYDKAFITV; listed as Homo sapiens) [compound 101] | ++ (≥20% = ++)
59 | 102 (LLFDVHTTL; listed as Homo sapiens) [compound 102] | +++ (≥50 = +++)
60 | 103 (KLQDGLLHI; listed as Homo sapiens) [compound 103] | ++ (≥20% = ++)
61 | 104 (ALFEGVVRQI; listed as Homo sapiens) [compound 104] | +++ (≥50 = +++)
62 | 105 (ALADLDELLIRA; listed as Homo sapiens) [compound 105] | +++ (≥50 = +++)
